The text below walks through data of patent publication US20230242658A1 (published 2023).

Experiment [1] has as its target T1, human PD-L1 on CHO-K1 cells (human, UniProt Q9NZQ7 19-290).
T1 construct: whole, on cells; also called CHO-K1/hPDL1; CHO-K1/hPD-L1
In words: FACS, CHO-K1/hPD-L1 cells. (In general: In flow cytometry, cells or beads pass a laser one at a time.)

For experiment [2], the target named is T2, human 4-1BB on CHO-K1 cells (human, UniProt Q07011 24-255).
T2 construct: whole, on cells; also called CHO-K1/hu 4-1BB; CHO-K1/hu4-1BB
T2 sequence (Q07011 24-255): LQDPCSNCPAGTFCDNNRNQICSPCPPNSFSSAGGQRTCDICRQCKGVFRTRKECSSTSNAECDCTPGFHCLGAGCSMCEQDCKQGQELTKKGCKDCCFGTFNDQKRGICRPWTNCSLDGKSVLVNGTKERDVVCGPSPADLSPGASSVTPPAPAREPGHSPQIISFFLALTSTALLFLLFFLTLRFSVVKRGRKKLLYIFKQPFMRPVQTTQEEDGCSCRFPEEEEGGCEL
In words: FACS, CHO-K1/hu4-1BB cells. On the procedure:
The binding abilities of the antibody molecules to a CHO-K1 cell strain highly expressing human 4-1BB (CHO-K1/hu4-1BB, GenScript, M00538) and a CHO-K1 cell strain highly expressing cynomolgus monkey 4-1BB (CHO-K1/cyno4-1BB, GenScript, M00569) were determined by flow cytometry FACS. Specifically, the cells were digested and resuspended in a complete medium, and the cell density was adjusted to 2×10⁶ cells/mL. Then, the cells were seeded in a 96-well V-bottom plate (Corning, #3894) at 100 μL/well (2×10⁵ cells/well) and centrifuged at 4° C. for 5 min, and the supernatant was discarded. Then, the serially diluted antibody molecules were added to the 96-well plate at 100 μL/well, and the mixtures were well mixed. The antibody molecules might serially diluted 3-fold from the highest final concentration 200 nM to obtain a total of 12 concentrations. hIgG1 iso (CrownBio, #C0001) was used as an isotype control. The cells were incubated at 4° C. for 1 h away from light. Then, the cells in each well were rinsed twice with 100 μL of pre-cooled FACS buffer (PBS buffer containing 0.5% BSA) and centrifuged at 500 g at 4° C. for 5 min, and then the supernatant was discarded. […] Then, the cells in each well were then rinsed twice with 200 μL of pre-cooled FACS buffer and centrifuged at 500 g at 4° C. for 5 min, and then the supernatant was discarded. Finally, a pre-cooled FACS buffer was added at 200 μL/well to resuspend the cells. The fluorescence signal values were read using a BD FACS CANTOII flow cytometer.

T1 sequence (Q9NZQ7 19-290): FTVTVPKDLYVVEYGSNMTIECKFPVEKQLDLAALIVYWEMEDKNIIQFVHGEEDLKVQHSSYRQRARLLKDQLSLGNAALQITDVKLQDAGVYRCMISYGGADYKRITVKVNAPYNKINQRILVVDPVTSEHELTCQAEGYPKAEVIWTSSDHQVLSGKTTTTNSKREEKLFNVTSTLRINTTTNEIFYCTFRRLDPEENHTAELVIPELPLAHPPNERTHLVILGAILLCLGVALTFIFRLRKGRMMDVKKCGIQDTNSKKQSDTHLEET

B1: PR004270 (bispecific antibody, human IgG1)
chain 1: EVQLVESGGGLVQPGGSLRLSCAASGFTFSSYWMSWVRQAPGKGLEWVANIKQEGSEKYYVDSVKGRFTISRDNAKNSLYLQMNSLRAEDTAVYYCARDRAVAGAFDIWGQGTMVTVSSASTKGPSVFPLAPSSKSTSGGTAALGCLVKDYFPEPVTVSWNSGALTSGVHTFPAVLQSSGLYSLSSVVTVPSSSLGTQTYICNVNHKPSNTKVDKKVEPKSC
chain 2: not shown
notes: PD-L1x4-1BB Fab-HCAb symmetric structure: Fab of PR000265, VH of PR001760, human IgG1 (L234A, L235A)
B1: in experiment [1], the binding result is given as “binds”.

B2: PR003549 (bispecific antibody, human IgG1, kappa, L234A L235A)
light: DIQMTQSPSTLSASVGDRVTVTCRASQSIYIWLAWYQQKPGKAPNLLIYKASSLETGVPSRFSGSGSGTEFTLTISSLQPDDFATYYCQQYYGSSRTFGQGTKVEIKRTVAAPSVFIFPPSDEQLKSGTASVVCLLNNFYPREAKVQWKVDNALQSGNSQESVTEQDSKDSTYSLSSTLTLSKADYEKHKVYACEVTHQGLSSPVTKSFNRGEC
heavy: EVQLVESGGGLVQPGGSLRLSCAASGFTFSSYWMSWVRQAPGKGLEWVANIKQEGSEKYYVDSVKGRFTISRDNAKNSLYLQMNSLRAEDTAVYYCARDRAVAGAFDIWGQGTMVTVSSASTKGPSVFPLAPSSKSTSGGTAALGCLVKDYFPEPVTVSWNSGALTSGVHTFPAVLQSSGLYSLSSVVTVPSSSLGTQTYICNVNHKPSNTKVDKKVEPKSCDKTHTCPPCPAPEAAGGPSVFLFPPKPKDTLMISRTPEVTCVVVDVSHEDPEVKFNWYVDGVEVHNAKTKPREEQYNSTYRVVSVLTVLHQDWLNGKEYKCKVSNKALGAPIEKTISKAKGQPREPQVYTLPPSREEMTKNQVSLTCLVKGFYPSDIAVEWESNGQPENNYKTTPPVLDSDGSFFLYSKLTVDKSRWQQGNVFSCSVMHEALHNHYTQKSLSLSPGEPKSSDKTHTPPPPPRTEVQLLESGGGLVQLGGSLRLSCAASGFTFSRYAMTWVRQAPEKGLEWVSSISGSGDDTYYGDSVKGRFTISRDNSQNTVYLQMNSLRAEDTAVYFCAKEKAGTTGDYYYNVDVWGQGTTVTVSS
notes: PD-L1x4-1BB IgG-VH: PR000265 + VH of PR001758 at heavy-chain C-terminus
Turning to B2, the binding result in experiment [1] and in experiment [2] was “binds” in each case.

B3: PR007130 (bispecific antibody, human IgG1, kappa)
light: DIQMTQSPSTLSASVGDRVTVTCRASQSIYIWLAWYQQKPGKAPNLLIYKASSLETGVPSRFSGSGSGTEFTLTISSLQPDDFATYYCQQYYGSSRTFGQGTKVEIKRTVAAPSVFIFPPSDEQLKSGTASVVCLLNNFYPREAKVQWKVDNALQSGNSQESVTEQDSKDSTYSLSSTLTLSKADYEKHKVYACEVTHQGLSSPVTKSFNRGEC
heavy: EVQLVESGGGLVQPGGSLRLSCAASGFTFSSYWMSWVRQAPGKGLEWVANIKQEGSEKYYVDSVKGRFTISRDNAKNSLYLQMNSLRAEDTAVYYCARDRAVAGAFDIWGQGTMVTVSSASTKGPSVFPLAPSSKSTSGGTAALGCLVKDYFPEPVTVSWNSGALTSGVHTFPAVLQSSGLYSLSSVVTVPSSSLGTQTYICNVNHKPSNTKVDKKVEPKSCDKTHTCPPCPAPEAAGAPSVFLFPPKPKDTLMISRTPEVTCVVVDVSHEDPEVKFNWYVDGVEVHNAKTKPREEQYNSTYRVVSVLTVLHQDWLNGKEYKCKVSNKALPAPIEKTISKAKGQPREPQVYTLPPSREEMTKNQVSLTCLVKGFYPSDIAVEWESNGQPENNYKTTPPVLDSDGSFFLYSKLTVDKSRWQQGNVFSCSVMHEALHNHYTQKSLSLSPGGGSGGSEVQLLESGGGLVQPGGSLRLSCAASGFTFSNYAMSWFRQPPETGLKWVSSIDASGGDTYYADSVKGRFTISRDNSKNTLYLQMNSLRAEDTAVYYCAKEGSHGTDDSHYDVDVWGQGTTVTVSS
notes: PD-L1x4-1BB IgG-VH: PR000265 + VH of PR004469 at heavy-chain C-terminus
Consider B3, for which the binding result in experiment [1] and in experiment [2] was “binds” throughout.

B4: PR007132 (bispecific antibody, human IgG1, kappa)
light: DIQMTQSPSTLSASVGDRVTVTCRASQSIYIWLAWYQQKPGKAPNLLIYKASSLETGVPSRFSGSGSGTEFTLTISSLQPDDFATYYCQQYYGSSRTFGQGTKVEIKRTVAAPSVFIFPPSDEQLKSGTASVVCLLNNFYPREAKVQWKVDNALQSGNSQESVTEQDSKDSTYSLSSTLTLSKADYEKHKVYACEVTHQGLSSPVTKSFNRGEC
heavy: EVQLVESGGGLVQPGGSLRLSCAASGFTFSSYWMSWVRQAPGKGLEWVANIKQEGSEKYYVDSVKGRFTISRDNAKNSLYLQMNSLRAEDTAVYYCARDRAVAGAFDIWGQGTMVTVSSASTKGPSVFPLAPSSKSTSGGTAALGCLVKDYFPEPVTVSWNSGALTSGVHTFPAVLQSSGLYSLSSVVTVPSSSLGTQTYICNVNHKPSNTKVDKKVEPKSCDKTHTCPPCPAPEAAGAPSVFLFPPKPKDTLMISRTPEVTCVVVDVSHEDPEVKFNWYVDGVEVHNAKTKPREEQYNSTYRVVSVLTVLHQDWLNGKEYKCKVSNKALPAPIEKTISKAKGQPREPQVYTLPPSREEMTKNQVSLTCLVKGFYPSDIAVEWESNGQPENNYKTTPPVLDSDGSFFLYSKLTVDKSRWQQGNVFSCSVMHEALHNHYTQKSLSLSPGGGSGGSEVQLVESGGGLVKPGGSLRLSCAASGFTFSDYYMSWIRQAPGKGLEWVSYISSSGSTIYYADSVKGRFTISRDNAKNSLYLQMNSLRAEDTAVYYCARVKPVAGTWDWFDPWGQGTPVTVSS
notes: PD-L1x4-1BB IgG-VH: PR000265 + VH of PR007286 at heavy-chain C-terminus
As to B4, the binding result in experiment [1] and in experiment [2] was “binds” in each case.

B5: PR003550 (bispecific antibody, human IgG1, kappa, L234A L235A)
light: DIQMTQSPSTLSASVGDRVTVTCRASQSIYIWLAWYQQKPGKAPNLLIYKASSLETGVPSRFSGSGSGTEFTLTISSLQPDDFATYYCQQYYGSSRTFGQGTKVEIKRTVAAPSVFIFPPSDEQLKSGTASVVCLLNNFYPREAKVQWKVDNALQSGNSQESVTEQDSKDSTYSLSSTLTLSKADYEKHKVYACEVTHQGLSSPVTKSFNRGEC
heavy: EVQLVESGGGLVQPGGSLRLSCAASGFTFSSYWMSWVRQAPGKGLEWVANIKQEGSEKYYVDSVKGRFTISRDNAKNSLYLQMNSLRAEDTAVYYCARDRAVAGAFDIWGQGTMVTVSSASTKGPSVFPLAPSSKSTSGGTAALGCLVKDYFPEPVTVSWNSGALTSGVHTFPAVLQSSGLYSLSSVVTVPSSSLGTQTYICNVNHKPSNTKVDKKVEPKSCDKTHTCPPCPAPEAAGGPSVFLFPPKPKDTLMISRTPEVTCVVVDVSHEDPEVKFNWYVDGVEVHNAKTKPREEQYNSTYRVVSVLTVLHQDWLNGKEYKCKVSNKALGAPIEKTISKAKGQPREPQVYTLPPSREEMTKNQVSLTCLVKGFYPSDIAVEWESNGQPENNYKTTPPVLDSDGSFFLYSKLTVDKSRWQQGNVFSCSVMHEALHNHYTQKSLSLSPGEPKSSDKTHTPPPPPRTEVQLVESGGGVVQPGGSLRLSCAASGFTFSNYAMTWVRQAPEKGLEWVSSISGSGVSTYYADSVKGRFTISRDNSKNTLYLQMTRLTAEDTAVYFCAKEGSSETDDHYYNVDVWGQGTTVTVSS
notes: PD-L1x4-1BB IgG-VH: PR000265 + VH of PR001760 at heavy-chain C-terminus
On to B5, for which the binding result in experiment [1] is recorded as “binds”.

B6: PR004268 (bispecific antibody, human IgG1, kappa, L234A L235A)
light: DIQMTQSPSTLSASVGDRVTVTCRASQSIYIWLAWYQQKPGKAPNLLIYKASSLETGVPSRFSGSGSGTEFTLTISSLQPDDFATYYCQQYYGSSRTFGQGTKVEIKRTVAAPSVFIFPPSDEQLKSGTASVVCLLNNFYPREAKVQWKVDNALQSGNSQESVTEQDSKDSTYSLSSTLTLSKADYEKHKVYACEVTHQGLSSPVTKSFNRGEC
heavy: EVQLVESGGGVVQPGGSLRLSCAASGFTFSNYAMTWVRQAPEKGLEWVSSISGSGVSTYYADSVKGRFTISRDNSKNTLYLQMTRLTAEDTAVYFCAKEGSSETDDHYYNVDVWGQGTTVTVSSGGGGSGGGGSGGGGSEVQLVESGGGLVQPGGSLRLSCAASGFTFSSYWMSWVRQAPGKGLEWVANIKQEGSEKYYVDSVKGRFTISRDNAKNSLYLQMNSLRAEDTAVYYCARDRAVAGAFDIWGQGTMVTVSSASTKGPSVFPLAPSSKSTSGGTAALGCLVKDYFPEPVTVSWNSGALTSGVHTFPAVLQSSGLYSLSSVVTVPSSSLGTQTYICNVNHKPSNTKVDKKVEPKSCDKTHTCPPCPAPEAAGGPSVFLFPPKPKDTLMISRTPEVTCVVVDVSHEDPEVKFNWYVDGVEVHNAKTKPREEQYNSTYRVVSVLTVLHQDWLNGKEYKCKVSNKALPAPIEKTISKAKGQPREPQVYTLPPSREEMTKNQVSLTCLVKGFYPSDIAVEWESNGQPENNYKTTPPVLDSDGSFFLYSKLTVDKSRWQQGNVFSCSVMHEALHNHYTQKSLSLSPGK
notes: PD-L1x4-1BB IgG-VH: VH of PR001760 at heavy-chain N-terminus of PR000265, linker GS_15
For the molecule B6, the binding result in experiment [1] was “binds”.

B7: PR003551 (bispecific antibody, human IgG1, kappa, L234A L235A)
light: DIQMTQSPSTLSASVGDRVTVTCRASQSIYIWLAWYQQKPGKAPNLLIYKASSLETGVPSRFSGSGSGTEFTLTISSLQPDDFATYYCQQYYGSSRTFGQGTKVEIKRTVAAPSVFIFPPSDEQLKSGTASVVCLLNNFYPREAKVQWKVDNALQSGNSQESVTEQDSKDSTYSLSSTLTLSKADYEKHKVYACEVTHQGLSSPVTKSFNRGEC
heavy: EVQLVESGGGLVQPGGSLRLSCAASGFTFSSYWMSWVRQAPGKGLEWVANIKQEGSEKYYVDSVKGRFTISRDNAKNSLYLQMNSLRAEDTAVYYCARDRAVAGAFDIWGQGTMVTVSSASTKGPSVFPLAPSSKSTSGGTAALGCLVKDYFPEPVTVSWNSGALTSGVHTFPAVLQSSGLYSLSSVVTVPSSSLGTQTYICNVNHKPSNTKVDKKVEPKSCDKTHTCPPCPAPEAAGGPSVFLFPPKPKDTLMISRTPEVTCVVVDVSHEDPEVKFNWYVDGVEVHNAKTKPREEQYNSTYRVVSVLTVLHQDWLNGKEYKCKVSNKALGAPIEKTISKAKGQPREPQVYTLPPSREEMTKNQVSLTCLVKGFYPSDIAVEWESNGQPENNYKTTPPVLDSDGSFFLYSKLTVDKSRWQQGNVFSCSVMHEALHNHYTQKSLSLSPGEPKSSDKTHTPPPPPRTEVQLLESGGGLVQPGGSLRLSCAASGFIFSNFAMTWVRQPPEKGLKWVSSINGSGFNTYYTDSVKGRFTISRDNSRNTLYLQMNRLTAEDTAVYFCAKEGSSETDDHYYNVDVWGQGTTVTVSS
notes: PD-L1x4-1BB IgG-VH: PR000265 + VH of PR001836 at heavy-chain C-terminus
On to B7, for which the binding result in experiment [1] and in experiment [2] was “binds” in each case.
